Measurements taken from the DeepSol protein solubility set.

Test: soluble on expression in E. coli; label from the status in PepcDB or PDB records

Sequence | soluble on expression in E. coli
MGSDKIHHHHHHMLTTLAIFNYRSLREIVLPLGQLNLITGANGSGKSNLYKALRLLAQTAQGGVVNALAQEGGLDSSFWAGPENFTKSMLAGDTAIEATVRQAPKRLKLGFAGEDFSYLIELGLPEPDATTLFGLDPQIKREAIWNGPKYRPSTVLVERRGPMVKSRSADGKGWIILGAHLQTGDSLFTELADPERCPEVLKLRDSIRAWRFYDHFRTDAEAPARRPQLGTATPVLHHDGRDLASAIQTIFEIGDKSAFDHAVSDAFPGAKVRIEPQAGGILVLAFHQHGLLRPLNASELSDGTLRYLLLIAALLTPRPPELMVLNEPETSLHPDLLPALARLIAKVSEECQLWVVSHANRLINALSQFEHCNTLALDKTLGQTQIQGQDLLNTPSWLWQNR | not soluble
MNTSLFKQERQKYIPKLPNILKKDFNNISLVYGENTEAIQDRQALKEFFKNTYGLPIISFTEGESSLSFSKALNIGIILSGGPAPGGHNVISGVFDAIKKFNPNSKLFGFKGGPLGLLENDKIELTESLINSYRNTGGFDIVSSGRTKIETEEHYNKALFVAKENNLNAIIIIGGDDSNTNAAILAEYFKKNGENIQVIGVPKTIDADLRNDHIEISFGFDSATKIYSELIGNLCRDAMSTKKYWHFVKLMGRSASHVALECALKTHPNICIVSEEVLAKKKTLSEIIDEMVSVILKRSLNGDNFGVVIVPEGLIEFIPEVKSLMLELCDIFDKNEGEFKGLNIEKMKEIFVAKLSDYMKGVYLSLPLFIQFELIKSILERDPHGNFNVSRVPTEKLFIEMIQSRLNDMKKRGEYKGSFTPVDHFFGYEGRSAFPSNFDSDYCYSLGYNAVVLILNGLTGYMSCIKNLNLKPTDWIAGGVPLTMLMNMEERYGEKKPVIKKALVDLEGRPFKEFVKNRDKWALNNLYLYPGPVQYFGSSEIVDEITETLKLELFK | soluble
MSLAPRFTVTYFVRAADEAEAKARALDIALEQTVEIPRNVVPKGYVEDEILGRLESLLQDPEGRPGFLAAISYSEDDIGGDFLQFLNIVFGNSSIKPGIKVEDIGLSPGLLDLCKGPRHGIVGLRARAGIGEKPLLMSAIKPAGLSTTELARLAYDFALGGMHFVKDDHGLVDQKTAPFEERLKACIEAVGEANAKSGGRTSFVPNITGPATAIIERAKQAQEYGAGGVMIAPALAGYDIVRTLAADPDFSLPIVSHPAFSGANVVSPDCGFTHRAFFGTLHRLMGADAVVYPNFGGRFGFTREECQSIAKTCSVDMGGPKAIVAAPGGGMTFARIPEMREAYGNDIMYLVGGALLSEPDLVSACKRLVAATEEGHHHHHH | soluble
MTALAVAPASAACAIAAEAIHCAAMDTASAADEALMLAYGAEGDMDAFDALYARHRAGLYRYILRSARNAAQADDIFQETWSRVIDARARYRPQARFTTWLLQIAHNLLVDAHRRQPAPVAPEQAEAALASVPAAEHEQPEARLSEFQQRRRLQLAIERLPDEQRLAMLLRLEHDLDVEEIAQVTGVSRETVKSRLRYATRRIREELSSESAPRSP | not soluble
MVLASSSAFALKDDVNQPINIVSDNQSLDMEKSVVTFTDNVVITQGSIVIKANKVVITRPAEKSGKKETVEAFGTPVTFHQQLDNGKPVDGKANKVHYDLGNEFLTLTNNAELKQLDSKINGSVITYDVKKQQLKANGNGKSRVTTVLIPSQLQQAKGK | not soluble
MRPCRTGREQMTDTTMQLLSQGTDHVKVPDFDILAEGKTLSGVAERLMSLSLTDNRGFEADQLTITLDDADGQLQLPPRGARLTVLIGWKGEPLTEKGTCRFNLSMQHPFQLSLSVF | not soluble
MQTSLRAPTLEKVSSRPRGSRRRSRKTFTAKLTSPTFRRWSSTEKWTVASREIGSARKRFCSTRTPGAAIHSSNRSRSALRYDHIDHRALARKSPHLMPPTFIKEEIMDDELDEVKEEVVSVGEAALPTPKVELNMDHPEKDLIISISVYLGYTRTLQYHEIRLGRLMKITDRLELTGDHTLRDLKNAFSCPIDFSFSDDFSEKKPSFKDMAKNKWPSTMFFIHDTDESHVNVEFPRRLVERNFRRIACDTCKEASAHWMIVDHDNLLPNSPGYLCSSCYKEFCFDVNGNKVCQFKAVPYCDRKDIGDGRQFFTELDL | not soluble
METRRDERIGRLAQALKKTDKLHLKDAAQLLGVSEMTVRRDLNADSTSVMLLGGYVVSDLKNNGVTNYFVSDQQTKHVREKQAIGTAAAYLVEANDTVFFDCGTTIPFIIDAIPDELLFTAICYSLNTFLALQEKKACRVILCGGEYHPDNAIFTPLNQRCELDNICPNKAFISAAGIELNAGATCFNFAELGMKQRAMATAQRIIIVADNSKFGQIKRACIGPMTLFDTVISDSAPSEPYLRYFSNNGIQLIHPGNLEHHHHHH | soluble
MPAEPQKSTEAGSVAPEKKLKACCACPETKRVRDACIIENGEEKCGKLIEAHKACMRAAGFNI | soluble
PTILVVGDLMIDHYIWGECERISPEAPVQVIDVKRETKTLGGACNVMSNLIALEASVLSCGVVGEDLAGRELLGFLQELGMESKGIITQKGRPTTQKSRIIASNQQVVRVDWENKSPISEESEEAMIAYIRSKLSLCDAVILSDYGKGVLTPRVCQTIIQMAKTLQKRVLVDPKGRDYSKYRGASLLTPNKKEAKEATGIEINDEASLKKALECLKKECELEFSVITLSEDGIGIFDQALERIPTIAQEVYDVTGAGDTVIASLAYGLSLGYPLRECALFANAAAAVVVGKIGSATATHGEIAEYLHS | not soluble
DADAEFDIVIGNIEDIIMEDEFQHLQQSFMEKYYLEFDDSEENKLSYTPIFNEYIEILEKHLEQQLVERIPGFNMDAFTHSLKQHKDEVSGDILDMLLTFTDFMAFKEMFTDYRAEKEGRG | soluble
SMSGMKSSKSKDVLSAAEVMQWSQSLEKLLANQTGQNVFGSFLKSEFSEENIEFWLACEDYKKTESDLLPCKAEEIYKAFVHSDAAKQINIDFRTRESTAKKIKAPTPTCFDEAQKVIYTLMEKDSYPRFLKSDIYLNLLNDLQA | soluble
MEKQLKAMSVSDKPAAPAAQKLGTAPLAAKKTRNEEWGTKVNIDTNIRKLTIKPNQPIYKYAVQVNYVFRKPDGTEATIEMSKSAKKGTEHDNDKTRCQNVYNEAIKRYDELKTGGPFFYDRQASLYTLTKLKNESISFVVTDKICKRQNFKEAQFVLKKVDQSFQSTSNDVIKTTNSCPANADKTLLEAMNIIVSGPAFENKNVITVGACVHYLIDPTGVDVAYKEYPEGQLYSGVGVSKSVKTLEGTDKKVPSLFMTTEMKTTLFHPDYAPLVELLQTFRGFSTTLKANSPAAQRIEKAFVGLDVVLNYGVHKGLGEDGVVMKIRRFHTSAKETCFEVEKSTREFTNVFDYFKKKYGITLKYPDLFTIEAKGKQGKIHFPAEVLLLCPNQTVTNDQMINNEQADMIKMSAAQPHIRKTTTDTIVRNVGLASNNIYGFIKVEDPVNLEGMVLPKPKIAFAGNRLADLANPKSRFPTDFNRAGQYYDAKELTKWELVFVQNEEVQGLAKQLADEMVNNGMKCSNPTMSFIIRGDLEPIFKKAKAAGTQLLFFVVKSRYNYHQQIKALEQKYDVLTQEIRAETAEKVFRQPQTRLNIINKTNMKLGGLNYAIGSEAFNKPNRLIVGFVTSQRVGGNPDYPISVGFAANMLKHHQKFAGGYVYVHRDRDVFGSIIKDTLLTIFKTCTEQRGRPDDILLYFNGVSEGQFSMINEEFSARVKEACMAFQKEGTPPFRPHITIIASSKAHNERLYKSDKGRIVNLEPGTVVDHTIVSNVYTEWYHASAVARQGTAKATKFTLIFTTKAGPQAEPLWHLEQLTNDLCYDHQIVFHPVGLPVPLYIADRYSQRGAMVLAANQGPIYNEGQIDLAATNSAYGYGEKKLFTTRFNA | not soluble
MVRKGRQHTEEALQEPRADRDRDVPNHIRGQAEQGVGARALQEGRGERAPQDTPAARGGRARGEGAREGEDYIARWEKPPRHHRQGDNGGARQDQARAGEVPLDLLILILIGP | soluble
MGSDKIHHHHHHMQPYYWESAHGNFGDDLNLWLWDFLMPGFRDVHPETLLVGVGTVLNRALLPEGQHKLVIGSGFGYGSLPDMSRPEEWDIRSVRGPLTAKALGLPPEKGVIDPAVMLADMPEFQKLPKLYKKSFVPHWESAVAGVWASIVPKVGLTYIDPCGEAKAVIRQILQSEVIIAESMHGAIIADALRVPWVAVSTSASINSFKWNDWASTLGVTYKPLRVPLSSRAEAQIKGESFWGMSFKNHQPAPENPNDLAVDAAVLEQARGPKQTGLRTAVKQILAGPAMLNLWKASQAEPQLSRDSVLQERKARFLEVIEGVRRDYGIAAVS | not soluble
MPLHVVLYQPEIPANTGNIARTCAATDTSLHLIRPLGFSTDDKMLKRAGLDYWPYVNISYYDSLDELFARFPEGEFYFITKFGRRYYDSFDFSDTEKHIFFVFGRETTGLPKELLEANMDRCLRIPMNDKVRSLNLSNTAAILVYEALRQQRFYGLS | not soluble
SNAKIGVLQFVSHPSLDLIYKGIQDGLAEEGYKDDQVKIDFMNSEGDQSKVATMSKQLVANGNDLVVGIATPAAQGLASATKDLPVIMAAITDPIGANLVKDLKKPGGNVTGVSDHNPAQQQVELIKALTPNVKTIGALYSSSEDNSKTQVEEFKAYAEKAGLTVETFAVPSTNEIASTVTVMTSKVDAIWVPIDNTIASGFPTVVSSNQSSKKPIYPSATAMVEVGGLASVVIDQHDLGVATGKMIVQVLKGAKPADTPVNVFSTGKSVINKKIAQELGITIPESVLKEAGQVI | soluble
VALSPLPLPEGLELTGIEGTLWQGQAAQVRWQGMSLGDLNWDLHLSALLLGQLEADIRFGRGSSTQLRGKGVVGVGLSGPYADDFLLSLPAAQAITWLPLPVPLMAQGQLEMAVKQYRFGEPYCQQAEGSLAWSAAQLESPIGALQLGTVVSDFTCQESVVTLKGGQKTAQVSSEFNLSLQPDNRYQAQAWFKPEAEFPESLKEQLSWLPQPDGQGRYPFNQQGQL | not soluble
MSEEDAEKLFLQEKPTRALLFIGSTGKTYASVISKEIDSTFAHTTRILSKMEQSGLIRFTFEGRIKFVELTKYGEEVEAALKDFRNIISEESPLRKEYLTAEEAGKVDKVRESEGKEYREHEEWEEENESEKDLDPLSAEILEKVRNLRNKIEGIYREAAETGQSKEMLSRKLGPNSRDIKKLYNQIENAETPVDETVVLALEETEGLLESYLKGSKPENV | not soluble
MSLRILVNGLLPLDSGKTTFSLSIIRLFNQVGIRLFPFKPIAGHNAWYSFNTLIRSEELGILVGNDALKYYDETKYDIRRINPFAVLFVPIDLEKISYNVSLYNMIMEYGFPYLIRLSDCINGTDQYFVNSSADIYVPKSMLKFTRNLALKFNAKLYDKMREIIDASPQLVDNCTIDVFRNYENVIIESYNDSASPTYNSTNVDYVFTVSPTKAFLIKGQEFKKALSLFSIPPWNVRVSTLMKYLKIGKSFEIDVGERVAKDEILDILLKSEGHHHHHH | not soluble
NSSFTPSTVPNINFSGLNGGITNTATNALRPSDIFGANA | soluble
MELVKTIQIGDDIYPPIPDLFGIQENQEFNLYKSTDGTLVLSPSDSKLSADHQSISSDEQMTTAVEQARLDEIATSVLSRHLDAFKELTE | not soluble
MKEVLFISEMERGRAEIESRVSNIKTTQDFGYREKIKEKKDASTAYAACISELLLEEKVKKIAVAYDFPIFYSNYLTEAGFTIVPVKSPFRKMRSVKGPEEIEAIKYAQMAGEKAMEAAITLIADAEEKDGVLYFEGQVLTGAKVNSVIDHTLLDFGCEAEETIVSCGEDTSNPHGTTEGPLRANAPIILDIFPRSKKKRYFADMTRTVLRGEASEKLKEMYETVLVAQQKALEMVKPGIHSSEIHRAVCDLFEARGYHTYRSGSKAGFTHSTGHGVGLDIHELPSVGESGVLLETGNVITIEPGLYYPGIGGIRLEDMVLVTKTGYENFTGLEKKFVLKSFYNLEHHHHHH | not soluble
